The text below walks through data of PMC5587847, “IPA1 functions as a downstream transcription factor repressed by D53 in strigolactone signaling in rice” (Cell Research, 2017).

This test addresses T1, HisTrx-D53 (rice (Oryza sativa L.), UniProt Q2RBP2 1-1131).
T1 construct: DWARF 53 (D53), rice; full-length CDS in an E. coli expression vector (pDEST51); also called HisTrx-D53 fusion protein; source: E. coli, purified
T1 sequence (looked up): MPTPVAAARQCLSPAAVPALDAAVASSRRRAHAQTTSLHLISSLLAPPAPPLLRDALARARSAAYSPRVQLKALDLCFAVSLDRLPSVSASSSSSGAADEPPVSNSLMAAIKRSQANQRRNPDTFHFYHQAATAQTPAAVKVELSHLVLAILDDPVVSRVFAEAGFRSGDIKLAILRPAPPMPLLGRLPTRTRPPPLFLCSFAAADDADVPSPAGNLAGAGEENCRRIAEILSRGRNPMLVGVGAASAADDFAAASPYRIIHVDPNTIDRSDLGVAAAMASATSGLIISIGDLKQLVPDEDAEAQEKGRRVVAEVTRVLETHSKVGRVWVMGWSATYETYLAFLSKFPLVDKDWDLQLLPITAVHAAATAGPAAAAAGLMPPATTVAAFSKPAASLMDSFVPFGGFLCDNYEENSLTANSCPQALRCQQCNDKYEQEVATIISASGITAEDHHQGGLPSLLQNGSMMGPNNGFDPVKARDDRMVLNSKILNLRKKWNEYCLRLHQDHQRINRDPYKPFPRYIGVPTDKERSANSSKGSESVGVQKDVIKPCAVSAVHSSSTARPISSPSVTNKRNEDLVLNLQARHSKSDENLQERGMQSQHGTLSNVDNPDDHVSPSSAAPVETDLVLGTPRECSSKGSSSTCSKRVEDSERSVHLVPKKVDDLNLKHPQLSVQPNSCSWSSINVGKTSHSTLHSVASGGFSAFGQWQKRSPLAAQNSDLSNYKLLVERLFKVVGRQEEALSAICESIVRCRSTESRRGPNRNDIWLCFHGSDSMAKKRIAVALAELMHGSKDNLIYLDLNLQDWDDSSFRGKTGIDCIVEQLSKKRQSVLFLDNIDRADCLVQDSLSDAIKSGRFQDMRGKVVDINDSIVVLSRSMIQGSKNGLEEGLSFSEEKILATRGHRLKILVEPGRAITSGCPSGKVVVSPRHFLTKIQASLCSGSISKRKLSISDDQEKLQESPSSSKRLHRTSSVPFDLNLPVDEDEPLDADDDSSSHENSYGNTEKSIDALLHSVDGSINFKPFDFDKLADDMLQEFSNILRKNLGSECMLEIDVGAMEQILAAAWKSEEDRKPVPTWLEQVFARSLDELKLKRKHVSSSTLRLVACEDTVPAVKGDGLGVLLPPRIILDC
Kind of test: pull-down; GST pull-down with HisTrx-D53 and GST-IPA1, both purified from bacteria; D53 detected by anti-D53. The conditions noted are these: both partners purified.

B1: GST-IPA1 (natural protein, rice (Oryza sativa L.), UniProt Q7EXZ2 1-417, looked up)
chain: MEMASGGGAAAAAGGGVGGSGGGGGGGDEHRQLHGLKFGKKIYFEDAAAAAGGGGTGSGSGSASAAPPSSSSKAAGGGRGGGGKNKGKGVAAAAPPPPPPPPRCQVEGCGADLSGIKNYYCRHKVCFMHSKAPRVVVAGLEQRFCQQCSRFHLLPEFDQGKRSCRRRLAGHNERRRRPQTPLASRYGRLAASVGEHRRFRSFTLDFSYPRVPSSVRNAWPAIQPGDRISGGIQWHRNVAPHGHSSAVAGYGANTYSGQGSSSSGPPVFAGPNLPPGGCLAGVGAATDSSCALSLLSTQPWDTTTHSAAASHNQAAAMSTTTSFDGNPVAPSAMAGSYMAPSPWTGSRGHEGGGRSVAHQLPHEVSLDEVHPGPSHHAHFSGELELALQGNGPAPAPRIDPGSGSTFDQTSNTMDWSL
notes: Ideal Plant Architecture 1 (IPA1, SPL14), rice; full-length CDS in pGEX-6p-1; source: E. coli (pGEX-6p-1), purified
Take B1: the binding result is “binds”.
